Test results: patent US11524046B2, “Biofilm prevention, disruption and treatment with bacteriophage lysin” (priority 2012, dated 2022)
Where two headings read alike, the source gives them in different places.

Experiments:
[1] = test system: methicillin resistant S. aureus MRSA strain ATCC BAA-42; test: MIC by broth microdilution (CLSI M07-A9) against strain ATCC BAA-42; format: cell-based
[2] = test system: Staphylococcus epidermidis biofilms; test: Biofilm eradicating concentration (BEC), 24 h biofilms in 24 well plates, crystal violet; format: cell-based
Bacillus cereus = Bacillus cereus (10)
Staphylcoccus aureus = test: MIC of PlySs2, susceptible and non-susceptible bacterial strains; format: cell-based
Streptococcus mutans = test: as above; format: cell-based; settings: Streptococcus mutans (12)
[3] = test system: MRSA biofilms grown on catheters (strain ATCC BAA-42); test: Catheter biofilm eradication in vitro, methylene blue staining
[4] = test system: Antibiotic-Resistant Staphylococcus aureus; test: MIC of PlySs2 against antibiotic-resistant S. aureus; format: cell-based; design: unit not given here
Listeria monocytogenes = test: MIC of PlySs2, susceptible and non-susceptible bacterial strains; format: cell-based; settings: Listeria monocytogenes (12)
Enterococcus faecium = Enterococcus faecium (5)
biofilms of BAA-42 MRSA = test: Biofilm eradication in 24-well plates, crystal violet staining; format: cell-based, S. aureus
[5] = test system: biofilms of MRSA strain CFS 218 (MRSA strain ATCC BAA-42); test: Scanning electron microscopy of treated catheter biofilms; format: cell-based, S. aureus; settings: 1×MIC (32 ug/ml)
Description: Biofilms were generated on catheter tubing (PVC with DEHP as plasticizer) as above and evaluated for PlySs2 sensitivity by scanning electron microscopy (SEM). […] After fixation on the catheter surface, samples were further processed and analyzed by scanning electron microscopy at 5000× magnification (FIGS. 21A-21C). Treatment with buffer alone (ie, Lactated Ringer's Solution alone) is included as a control.

Pseudomonas aeruginosa = Pseudomonas aeruginosa (5)
Streptococcus pneumoniae = test: MIC of PlySs2, susceptible and non-susceptible bacterial strains; format: cell-based; settings: Streptococcus pneumoniae (26)
[6] = test system: MRSA biofilms grown on catheters (strain ATCC BAA-42); test: Catheter biofilm residual CFU, BacTiter-Glo luciferase estimate
[7] = test system: MRSA strains CFS 553 (ATCC 43300) and CFS 992 (JMI 5381); test: MIC of PlySs2 against additional MRSA strains; format: cell-based, S. aureus
[8] = test system: Staphylococcus epidermidis strains; format: cell-based
[9] = test system: S. epidermidis (strain CFS 313 NRS34) biofilm; test: S. epidermidis catheter biofilm titration, methylene blue staining; format: cell-based; settings: MIC 8 ug/ml
Description: S. epidermidis biofilms in catheters were treated with PlySs2 and evaluated using methods similarly as described above for the S. aureus studies.
The results of S. epidermidis (strain CFS 313 NRS34, which is a vancomycin intermediate sensitive S. epidermidis (VISE) strain) biofilm studies on catheters treated with PlySs2 at 10×MIC and below are shown in FIG. 17. S. epidermidis biofilm is destroyed at PlySs2 concentrations down to 0.1×MIC. The MIC here is 8 ug/ml.

Enterococcus faecalis = Enterococcus faecalis (17)
[10] = test system: S. aureus MRSA strain BAA-42; test: Biofilm prevention assay, 24 well plate, crystal violet; format: cell-based; settings: added with bacteria, 6 hours
[11] = CFS 533, NRS6, (VISE), bloodstream USA

B1: PlySs2: bacteriophage lysin derived from Streptococcus suis, amino acid sequence of FIG. 5 / SEQ ID NO: 1; CHAP and SH3 domains (protein, listed as Streptococcus suis)
chain: MTTVNEALNNVRAQVGSGVSVGNGECYALASWYERMISPDATVGLGAGVGWVSGAIGDTISAKNIGSSYNWQANGWTVSTSGPFKAGQIVTLGATPGNPYGHVVIVEAVDGDRLTILEQNYGGKRYPVRNYYSAASYRQQVVHYITPPGTVAQSAPNLAGSRSYRETGTMTVTVDALNVRRAPNTSGEIVAVYKRGESFDYDTVIIDVNGYVWVSYIGGSGKRNYVATGATKDGKRFGNAWGTFK
- MIC value ([1]; ATCC BAA-42, in the absence of reducing agent): 32 µg/mL
- Minimally inhibitory concentration (MIC) ([1]; ATCC BAA-42, in the presence of reducing agent (such as DTT or BMS)): 16 µg/mL
- BEC ([2]; CFS 166, Environmental lab contaiminant): 5.12 µg/mL
- BEC ([2]; CFS 224, HER 1292): 5.12 µg/mL
- BEC ([2]; CFS 225, HPH-6): 0.512 µg/mL
- BEC ([2]; CFS 226, HPH-5): 5.12 µg/mL
- BEC ([2]; CFS 227, HCN-4): 5.12 µg/mL
- BEC ([2]; CFS 272, NRS53 (VISE)): 0.215 µg/mL
- BEC ([2]; CFS 280, NRS101 (MRSE)): 0.512 µg/mL
- BEC ([2]; CFS 300, NRS8, (VISE)): 0.512 µg/mL
- BEC ([2]; CFS 313, NRS34 (VISE)): 0.512 µg/mL
- BEC [2, 11]: 0.512 µg/mL
- BEC ([2]; CFS 552, ATCC #12228 (MSSE)): 51.2 µg/mL
- BEC ([2]; CFS 769, NRS101): 0.512 µg/mL
- BEC ([2]; CFS 1152, ATCC-14990): 5.12 µg/mL
- BEC ([2]; CFS 1154, ATCC-49461): 5.12 µg/mL
- BEC ([2]; CFS 1161, NRS850-VCU028): 5.12 µg/mL
- BEC ([2]; CFS 1164, NRS853-VCU041): 5.12 µg/mL
- BEC ([2]; CFS 1165, NRS854-VCU045): 5.12 µg/mL
- BEC ([2]; CFS 1168, NRS857-VCU065): 0.512 µg/mL
- BEC ([2]; CFS 1174, NRS864-VCU112): 51.2 µg/mL
- BEC ([2]; CFS 1184, NRS874-VCU126): 5.12 µg/mL
- BEC ([2]; CFS 1185, NRS875-VCU127): 5.12 µg/mL
- BEC ([2]; CFS 1186, NRS876-VCU128): 0.512 µg/mL
- MIC 50% (Bacillus cereus): >512 µg/mL
- MIC 90% (Bacillus cereus): >512 µg/mL
- MIC Range (Bacillus cereus): >512 µg/mL
- MIC 50% (Staphylcoccus aureus; Methicillin resistant (120)): 4 µg/mL
- MIC 90% (Staphylcoccus aureus; Methicillin resistant (120)): 8 µg/mL
- MIC Range (Staphylcoccus aureus; Methicillin resistant (120)): 1 to 16 µg/mL
- MIC 50% (Staphylcoccus aureus; Methicillin susceptible (103)): 4 µg/mL
- MIC 90% (Staphylcoccus aureus; Methicillin susceptible (103)): 8 µg/mL
- MIC Range (Staphylcoccus aureus; Methicillin susceptible (103)): 1 to 16 µg/mL
- MIC 50% (Streptococcus mutans): 64 µg/mL
- MIC 90% (Streptococcus mutans): 256 µg/mL
- MIC Range (Streptococcus mutans): 2 to 256 µg/mL
- time of full removal of stainable biofilm ([3]; 1×MIC (32 ug/mL)): ≤ 60 min
- biofilm clearance from the catheter ([3]; 1×MIC, 24 hours): completely cleared
- MIC 50% ([4]; Daptomycin-resistant (8)): 2
- MIC 90% ([4]; Daptomycin-resistant (8)): 4
- MIC Range ([4]; Daptomycin-resistant (8)): 2-4
- MIC 50% ([4]; Linezolid-resistant (5)): 2
- MIC 90% ([4]; Linezolid-resistant (5)): 2
- MIC Range ([4]; Linezolid-resistant (5)): 2-4
- MIC 50% ([4]; Vancomycin-intermediate (31)): 8
- MIC 90% ([4]; Vancomycin-intermediate (31)): 32
- MIC Range ([4]; Vancomycin-intermediate (31)): 1-64
- MIC 50% ([4]; Vancomycin-resistant (14)): 2
- MIC 90% ([4]; Vancomycin-resistant (14)): 4
- MIC Range ([4]; Vancomycin-resistant (14)): 1-4
- MIC 50% (Listeria monocytogenes): 128 µg/mL
- MIC 90% (Listeria monocytogenes): 512 µg/mL
- MIC Range (Listeria monocytogenes): 1 to 512 µg/mL
- MIC 50% (Enterococcus faecium): >512 µg/mL
- MIC 90% (Enterococcus faecium): >512 µg/mL
- biofilm dissolution (biofilms of BAA-42 MRSA; 3.2 μg/ml (1/10×MIC), 4 hours): Significant dissolution
- time by which full clearance was observed (biofilms of BAA-42 MRSA; 0.01×MIC): ≤ 24 h
- biofilm clearance (biofilms of BAA-42 MRSA; 0.01×MIC, 4 hours): partial clearance
- time by which the biofilm is cleared (biofilms of BAA-42 MRSA; 0.1×MIC): ≤ 4 h
- biofilm dissolution (biofilms of BAA-42 MRSA; 0.32 (1/100×MIC), 4 hours): some dissolution
- time by which the biofilm is cleared (biofilms of BAA-42 MRSA; 1×MIC 32 μg/ml): ≤ 2 h
- biofilm on catheter surface by SEM ([5]; 30 seconds): rapidly diminishes
- biofilm on catheter surface by SEM ([5]; 15 minutes): almost completely removes
- MIC 50% (Pseudomonas aeruginosa): >512 µg/mL
- MIC 90% (Pseudomonas aeruginosa): >512 µg/mL
- MIC Range (Pseudomonas aeruginosa): >512 µg/mL
- MIC 50% (Streptococcus pneumoniae): 16 µg/mL
- MIC 90% (Streptococcus pneumoniae): 64 µg/mL
- MIC Range (Streptococcus pneumoniae): 1 to 64 µg/mL
- CFUs remaining in catheter biofilm ([6]; 1×MIC, 24 hours, 100 CFU/ml is the limit of detection): 100 CFU/ml
- lowest concentration active at removing biofilm bacteria ([6]; titration, CFU): 0.01 ×MIC
- 1×MIC ([7]; strain ATCC 4330): 16 µg/mL
- 1×MIC ([7]; strain JMI 5381): 32 µg/mL
- MIC ([8]; CFS 224, HER 1292): 512 µg/mL
- MIC ([8]; CFS 225, HPH-6): 128 µg/mL
- MIC ([8]; CFS 226, HPH-5): 512 µg/mL
- MIC ([8]; CFS 227, HCN-4): >512 µg/mL
- MIC ([8]; CFS 272, NRS53 (VISE)): 128 µg/mL
- MIC ([8]; CFS 280, NRS101 (MRSE)): 128 µg/mL
- MIC ([8]; CFS 300, NRS8, (VISE)): 32 µg/mL
- MIC ([8]; CFS 313, NRS34 (VISE)): 8 µg/mL
- MIC [8, 11]: >512 µg/mL
- MIC ([8]; CFS 769, NRS101): 64 µg/mL
- lowest concentration at which biofilm is destroyed [9]: 0.1 ×MIC
- MIC 50% (Enterococcus faecalis): >512 µg/mL
- MIC 90% (Enterococcus faecalis): >512 µg/mL
- prevention of biofilm formation ([10]; 0.1×MIC): effectively and completely prevent
- prevention of biofilm formation ([10]; 1×MIC (32 ug/ml)): effectively and completely prevent
